B1: Brefeldin A-inhibited guanine nucleotide-exchange protein 2 (Homo sapiens), Q9Y6D5 (parent)
chain: MQESQTKSMFVSRALEKILADKEVKRPQHSQLRRACQVALDEIKAEIEKQRLGTAAPPKANFIEADKYFLPFELACQSKSPRVVSTSLDCLQKLIAYGHITGNAPDSGAPGKRLIDRIVETICSCFQGPQTDEGVQLQIIKALLTAVTSPHIEIHEGTILQTVRTCYNIYLASKNLINQTTAKATLTQMLNVIFTRMENQVLQEARELEKPIQSKPQSPVIQAAAVSPKFVRLKHSQAQSKPTTPEKTDLTNGEHARSDSGKVSTENGDAPRERGSSLSGTDDGAQEVVKDILEDVVTSAIKEAAEKHGLTEPERVLGELECQECAIPPGVDENSQTNGIADDRQSLSSADNLESDAQGHQVAARFSHVLQKDAFLVFRSLCKLSMKPLGEGPPDPKSHELRSKVVSLQLLLSVLQNAGPVFRTHEMFINAIKQYLCVALSKNGVSSVPDVFELSLAIFLTLLSNFKMHLKMQIEVFFKEIFLNILETSTSSFEHRWMVIQTLTRICADAQCVVDIYVNYDCDLNAANIFERLVNDLSKIAQGRSGHELGMTPLQELSLRKKGLECLVSILKCMVEWSKDLYVNPNHQTSLGQERLTDQEIGDGKGLDMARRCSVTSMESTVSSGTQTTVQDDPEQFEVIKQQKEIIEHGIELFNKKPKRGIQFLQEQGMLGTSVEDIAQFLHQEERLDSTQVGDFLGDSARFNKEVMYAYVDQLDFCEKEFVSALRTFLEGFRLPGEAQKIDRLMEKFAARYIECNQGQTLFASADTAYVLAYSIIMLTTDLHSPQVKNKMTKEQYIKMNRGINDSKDLPEEYLSSIYEEIEGKKIAMKETKELTIATKSTKQNVASEKQRRLLYNLEMEQMAKTAKALMEAVSHAKAPFTSATHLDHVRPMFKLVWTPLLAAYSIGLQNCDDTEVASLCLEGIRCAIRIACIFGMQLERDAYVQALARFSLLTASSSITEMKQKNIDTIKTLITVAHTDGNYLGNSWHEILKCISQLELAQLIGTGVKTRYLSGSGREREGSLKGHTLAGEEFMGLGLGNLVSGGVDKRQMASFQESVGETSSQSVVVAVDRIFTGSTRLDGNAIVDFVRWLCAVSMDELASPHHPRMFSLQKIVEISYYNMNRIRLQWSRIWHVIGDHFNKVGCNPNEDVAIFAVDSLRQLSMKFLEKGELANFRFQKDFLRPFEHIMKKNRSPTIRDMAIRCIAQMVNSQAANIRSGWKNIFAVFHQAASDHDGNIVELAFQTTCHIVTTIFQHHFPAAIDSFQDAVKCLSEFACNAAFPDTSMEAIRLIRFCGKYVSERPRVLQEYTSDDMNVAPGDRVWVRGWFPILFELSCIINRCKLDVRTRGLTVMFEIMKSYGHTFEKHWWQDLFRIVFRIFDNMKLPEQLSEKSEWMTTTCNHALYAICDVFTQFYEALNEVLLSDVFAQLQWCVKQDNEQLARSGTNCLENLVISNGEKFSPEVWDETCNCMLDIFKTTIPHVLLTWRPVGMEEDSSEKHLDVDLDRQSLSSIDKNPSERGQSQLSNPTDDSWKGRPYANQKLFASLLIKCVVQLELIQTIDNIVFYPATSKKEDAEHMVAAQQDTLDADIHIETEDQGMYKYMSSQHLFKLLDCLQESHSFSKAFNSNYEQRTVLWRAGFKGKSKPNLLKQETSSLACCLRILFRMYVDENRRDSWEEIQQRLLTVCSEALAYFITVNSESHREAWTSLLLLLLTKTLKINDEKFKAHASMYYPYLCEIMQFDLIPELRAVLRKFFLRIGVVYKIWIPEEPSQVPAALSPVW
partner: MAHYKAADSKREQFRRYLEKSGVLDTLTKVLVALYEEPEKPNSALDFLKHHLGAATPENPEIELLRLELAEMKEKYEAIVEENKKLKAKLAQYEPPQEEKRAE

Variants of: B1
Conditions: with mycbp_human MYCBP

| effect of a mutation on the interaction | Variant |
| --- | --- |
| decreasing interaction | I292P |
